Assay results published in patent US20250257332A1, “TRUNCATED AND FUSION PROTEINS” (Monash University, priority 2021, published 2025).
Entries after “also recorded” stand apart in the source; their conditions may differ.

Key:
TLR4 = target: T1, TLR4 (Homo sapiens, UniProt O00206); assay: TLR4 signalling assay in HEK-Blue TLR4 reporter cells; type: cell-based; conditions: 19 nM; 24 hours; plus 5 ug/ml polymyxin B; listed as NAMPTcif
T1 construct: host or cells: HEK-Blue TLR4 reporter cell line
Description: TLR4 receptor activation was assayed using the HEK-Blue TLR4 reporter cell line (InvivoGen). In this cell line, TLR4 and downstream NFκB signalling induces expression and secretion of alkaline phosphatase that can be quantified via colorimetric assay. HEK-Blue cells were treated for 24 hours with 19 nM of NAMPTcif or PIGF-NAMPTcif plus 5 ug/ml polymyxin B to ensure no TLR4 activation by any trace amounts of endotoxin. TLR4 activity was reported as the equivalent amount of activation by bacterial lipopolysaccharides (LPS), thus a standard curve was generated by serial dilutions of LPS from 0.01 to 20 ng/ml. Detection of alkaline phosphatase activity was performed using a QUANTI-Blue kit (InvivoGen) according to manufacturer's instructions and plates were read using a Synergy H1 plate reader (BioTek). Data were presented as equivalent LPS concentration in ng/ml. A one-way ANOVA with Dunnett's multiple comparisons test was performed to determine statistical significance.

recombinant mouse CCR5 = target: T2, recombinant mouse CCR5 (Mus musculus, UniProt P51682); assay: NAMPT competitive binding to CCR5 (ELISA)
T2 construct: purchased MyBioSource
Description: hrNAMPT competitive binding to mrCCR5: ELISA plates (Medium binding, Greiner Bio-One) were coated with 1% BSA or 20 nM of recombinant mouse CCR5 (MyBioSource) in PBS overnight at 4° C. Then, wells were blocked for 1 h at room temperature with 1% BSA in PBS containing 0.05% Tween-20 (PBS-T). Wells were washed 3 times with PBS-T and further incubated with hNAMPTcif at increasing concentration (0 nM to 100 nM) for 1 h in PBS-T with 0.1% BSA containing 100 nM hrNAMPT (1) (Peprotech). Bound hrNAMPT (1) molecules were detected using a biotinylated antibody for NAMPT and HRP-streptavidin (Human PBEF/Visfatin DuoSet ELISA, R&D Systems). Signals obtained on BSA-coated wells were used to remove non-specific binding for each hrNAMPT concentrations to obtain specific binding values. Specific binding data were fitted by non-linear regression with Prism 7 to obtain the half maximal inhibitory concentration (IC50) of hNAMPTnif using A450nm=A450nmMin+(A450nmMax−A450nmMin)/(1+10^(X-LogIC50)).

[1] = tested on: Human primary endothelial cells derived from umbilical vein; assay: Human primary endothelial cell proliferation, CyQuant; type: cell-based; conditions: 20 nM; 48 hours
Description: (§1) FIG. 9. Human NAMPT variants stimulate human endothelial cell proliferation. Human primary endothelial cells derived from umbilical vein were treated with 20 nM full length NAMPT (NAMPT) or NAMPT variants (NAMPTxxx-xxx, where xxx are amino acid numbers) for 48 hours. Quantification of cell proliferation was performed using CyQuant Proliferation Assay kit. […] Treatment with 10% FBS was used as a positive control. Box and whiskers denote median with minimum and maximum values. n=6 independent experiments per protein. Statistical significance is indicated as p-value and determined by one-sample t-test.
Similarly, the inventors next investigated the activity of full length NAMPT, NAMPT402-491 and NAMPT422-491 on human endothelial cell proliferation. Human endothelial cells were derived from umbilical vein and treated with 20 nM full length NAMPT (NAMPT) or NAMPT variants for 48 hours.

[2] = tested on: Human primary satellite cells; assay: Human primary satellite cell proliferation, CyQuant; type: cell-based; conditions: 20 nM; 48 hours; media with IGF-1 and FGF-2
Description: as §1, with “8.” for “9.”, “satellite” for “endothelial”, “cells” for “cells derived from umbilical vein”, “hours. The media contained the growth factors IGF-1 and FGF-2 as well.” for “hours.”, “20%” for “10%”, “n=6-10” for “n=6”
The inventors next sought to compare the activity of full length NAMPT, NAMPT402-491 and NAMPT422-491 on human satellite cell proliferation. Human primary satellite cells were treated with 20 nM full length NAMPT (NAMPT) or NAMPT402-491 and NAMPT422-491 for 48 hours.

[3] = tested on: needle-stab muscle injury in zebrafish larvae; assay: Larval zebrafish muscle injury and EdU pulse-chase; type: in vivo; conditions: 57 nM in Ringer's solution immediately after injury at 4 dpf; EdU at 2 dpi
Description: Zebrafish larvae (4 dpf) were anaesthetized in 0.01% tricaine (MS-222) (Sigma-Aldrich) in Ringer's solution. Needle-stab injury was carried out in the dorsal myotome, consisting in a single 30-gauge needle puncture that generates an extensive injury with many damaged muscle fibres. Nampt fragment treatments were carried out by incubating 4 dpf needle-stab-injured larvae in 57 nM Nampt in Ringer's solution immediately after injury. Needle-stab-injured larvae at 6 dpf (2 dpi) were transferred into Ringer's solution containing 50 μg ml-1 EdU (Thermo Fisher Scientific) for 1 h and chased for a further 1.5 h before fixation. Samples were developed using the Click-iT EdU Alexa Fluor 647 imaging Kit (Thermo Fisher Scientific) following the manufacturer's protocol, followed by a phalloidin immunostaining (Thermo Fisher Scientific). EdU+ cells in a region encompassing two myotomes on either side of the injury were quantified as the number of EdU+ cells outside the injury region. EdU+ cells in the caudal haematopoietic tissue were excluded from this analysis. Statistical analysis has been conducted using Two-way ANOVA with Tuckey's multiple comparison test.

[4] = tested on: C2C12 murine myoblast cells; assay: C2C12 cell proliferation, CyQuant Proliferation Assay kit; type: cell-based, mouse; conditions: 48 hours
Description: FIG. 7. Human NAMPT variants stimulate muscle progenitor proliferation. C2C12 mouse myoblasts were treated with 20 nM full length NAMPT (NAMPT) or NAMPT variants for (NAMPTxxx-xxx, where xxx are amino acid numbers) 48 hours. Quantification of cell proliferation was performed using CyQuant Proliferation Assay kit. […] Box and whiskers denote median with minimum and maximum values. n=4-5 independent experiments per protein. Statistical significance is indicated as exact p-value. […] Significance between conditions were analysed by one-way ANOVA with Tukey post-hoc test.
Human NAMPTcif (hNAMPTcif) and truncated variants of hNAMPTcif were designed by progressively removing N-terminal regions containing positively charged amino acids. Four truncations were produced and numbered T1 to T4. Recombinant protein was produced using a bacterial expression system. hNAMPTcif variants were purified by FPLC using His-tag affinity purification. Cell proliferation assays were performed using C2C12 murine myoblast cells treated with purified recombinant hNAMPTcif variants, as well as full length NAMPT. Cells were treated with 10 nM of recombinant protein for 48 hours in DMEM supplemented with 2% foetal bovine serum at 37° C., 5% CO2. PBS treatment was used as a negative control. 10% foetal bovine serum was used as positive control. Quantification of proliferation was performed using commercially-available CyQuant Proliferation Assay kit (Thermo Fisher Scientific) according to manufacturer's instructions and read using a Synergy H1 plate reader (BioTek). Data were presented as percentage increase versus.
The heparin-binding sequence of placenta growth factor 2 (PIGF2) was fused to the N-terminus of NAMPTcif and produced using a bacterial expression system. PIGF-NAMPTcif was purified by FPLC using His-tag affinity purification followed by size exclusion chromatography. Cell proliferation assays were performed using C2C12 murine myoblast cells treated with purified recombinant NAMPTcif and full length NAMPT. Cells were treated with 2 nM, 10 nM and 20 nM concentrations of recombinant protein for 48 hours in DMEM supplemented with 2% foetal bovine serum at 37° C., 5% CO2. PBS treatment was used as a negative control. 10% foetal bovine serum was used as positive control. Quantification of proliferation was performed using commercially-available CyQuant Proliferation Assay kit (Thermo Fisher Scientific) according to manufacturer's instructions and read using a Synergy H1 plate reader (BioTek). Data were presented as percentage increase versus negative control. A two-tailed unpaired t-test was used to determine statistical significance.

T1 sequence (O00206 24-839): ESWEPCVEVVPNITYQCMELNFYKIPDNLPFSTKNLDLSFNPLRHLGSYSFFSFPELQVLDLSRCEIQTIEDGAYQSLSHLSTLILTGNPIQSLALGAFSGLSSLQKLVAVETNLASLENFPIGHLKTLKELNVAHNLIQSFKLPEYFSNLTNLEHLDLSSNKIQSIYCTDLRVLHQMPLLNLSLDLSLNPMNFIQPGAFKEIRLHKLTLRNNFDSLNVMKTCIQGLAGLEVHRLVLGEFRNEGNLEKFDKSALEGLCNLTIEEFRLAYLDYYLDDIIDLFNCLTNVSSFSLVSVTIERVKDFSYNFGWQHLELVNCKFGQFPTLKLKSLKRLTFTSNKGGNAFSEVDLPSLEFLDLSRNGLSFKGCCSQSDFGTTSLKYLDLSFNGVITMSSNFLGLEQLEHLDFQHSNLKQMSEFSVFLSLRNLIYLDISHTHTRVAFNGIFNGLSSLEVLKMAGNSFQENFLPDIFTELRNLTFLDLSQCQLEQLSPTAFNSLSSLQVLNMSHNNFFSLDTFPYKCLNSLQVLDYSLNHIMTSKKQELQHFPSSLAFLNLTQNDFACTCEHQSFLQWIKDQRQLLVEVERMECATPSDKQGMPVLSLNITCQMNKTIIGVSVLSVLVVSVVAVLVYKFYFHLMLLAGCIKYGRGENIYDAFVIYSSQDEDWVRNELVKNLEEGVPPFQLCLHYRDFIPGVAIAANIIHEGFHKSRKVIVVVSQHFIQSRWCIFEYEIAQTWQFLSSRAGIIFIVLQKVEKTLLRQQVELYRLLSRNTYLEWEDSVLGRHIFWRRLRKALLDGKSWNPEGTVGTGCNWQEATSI
T1 sequence (Q9Y6Y9 17-160 partner limits assumed): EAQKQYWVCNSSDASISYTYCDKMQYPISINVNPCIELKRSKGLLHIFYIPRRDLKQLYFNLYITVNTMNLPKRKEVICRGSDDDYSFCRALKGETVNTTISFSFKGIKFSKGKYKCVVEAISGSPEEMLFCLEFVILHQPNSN
T2 sequence (P51682 whole entry): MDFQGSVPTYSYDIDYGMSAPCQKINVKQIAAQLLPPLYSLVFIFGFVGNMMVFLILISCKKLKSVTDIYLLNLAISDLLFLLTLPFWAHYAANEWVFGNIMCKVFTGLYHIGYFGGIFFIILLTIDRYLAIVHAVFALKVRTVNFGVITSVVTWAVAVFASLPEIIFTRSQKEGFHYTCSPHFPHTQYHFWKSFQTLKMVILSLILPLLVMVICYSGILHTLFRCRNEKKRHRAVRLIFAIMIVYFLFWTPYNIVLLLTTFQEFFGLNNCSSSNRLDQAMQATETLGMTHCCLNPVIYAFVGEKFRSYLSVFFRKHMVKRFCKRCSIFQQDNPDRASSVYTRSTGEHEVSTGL

B1: NAMPT402-491: Human NAMPT cytokine finger, residues 402-491 of full length NAMPT, SEQ ID NO: 1 (protein, listed as Homo sapiens)
chain: SYVVTNGLGINVFKDPVADPNKRSKKGRLSLHRTPAGNFVTLEEGKGDLEEYGQDLLHTVFKNGKVTKSYSFDEIRKNAQLNIELEAAHH
TLR4 activation (equivalent LPS concentration) (TLR4): does not induce TLR4 activity compared to full length NAMPT; also recorded: abrogated TLR4 activity
inhibition of NAMPT binding to CCR5 (recombinant mouse CCR5): inhibits the binding of NAMPT to CCR5
endothelial cell proliferation, percentage increase vs PBS-treated control [1]: increased endothelial cell proliferation compared to full length NAMPT and NAMPT422-491
satellite cell proliferation, percentage increase vs PBS-treated control [2]: increased satellite cell proliferation compared to full length NAMPT
cell proliferation (EdU-positive cells) within the injury zone [3]: significant increase in cell proliferation within the injury zone
cell proliferation, percentage increase vs PBS-treated control ([4]; 10 nM, compared with full length NAMPT, listed as cif): stimulates satellite cell proliferation in a dose-dependent manner
cell proliferation, percentage increase vs PBS-treated control ([4]; 10 nM, compared with full length NAMPT, listed as hNAMPTcif): enhanced stimulated satellite cell proliferation compared to full length hNAMPT
cell proliferation, percentage increase vs PBS-treated control ([4]; 20 nM, compared with full-length NAMPT): enhanced cellular proliferation compared to full-length NAMPT
